We go through eight molecules from article PMC5380656 (The Journal of Allergy and Clinical Immunology, 2017).

Assay [1] deals with T1, staphylococcal enterotoxin D (Staphylococcus aureus, strain , UniProt P20723).
T1 construct: source: bought: Toxin Technology
Nature of the assay: ELISA. Background: ELISA stands for enzyme-linked immunosorbent assay.

For assay [2], the target named is T2, staphylococcal enterotoxin A (Staphylococcus aureus, strain , UniProt P0A0L2).
T2 construct: source: bought: Toxin Technology
Nature of the assay: ELISA.

The target in assay [3] is T3, staphylococcal enterotoxin E (Staphylococcus aureus, strain , UniProt P12993).
T3 construct: source: bought: Toxin Technology
Nature of the assay: ELISA.

Assay [4] addresses biotin-labeled staphylococcal enterotoxin A (Staphylococcus aureus, strain , UniProt P0A0L2, biotin (site not stated)). The assay is described as follows: SPR; Biacore T200; […]; 25°C; […]. The settings on record: both partners purified.
In assay [5] the target is T4, staphylococcal enterotoxin C1 (Staphylococcus aureus, strain , UniProt P01553).
T4 construct: source: bought: Toxin Technology
The assay is described as follows: ELISA. The following applies: both partners purified.

Assay [6] concerns the target biotin-labeled staphylococcal enterotoxin E (Staphylococcus aureus, strain , UniProt P12993, biotin (site not stated)). Nature of the assay: SPR; Biacore T200; […]; 25°C; […]. The following applies: both partners purified. (In general: Surface plasmon resonance follows binding to a sensor surface in real time, without labels.)

B1: anti-SED antibody HPK-014_1A4, recombinant IgG1 (antibody, V domains shown)
VH: EVQLLESGGGLVQPGGSLRLSCAASGFNFDSYAMSWVRQAPGKGLEWVSSISSSGGATYYADSVKGRSTISRDNSKNTVSLQMNSLRAEDTAVYYCAKKRRYDAVTGYLFDMWGQGTMVTVSS
VL: DIVMTQSPFSLAVSLGERATMNCKSSQSVLHSSNNENYLAWYQQKPGQPPKLLIYWASTRESGVPDRFSGSGSGTDFTLTISSLQAEDVAVYYCQQFYSPAPYTFGQGTKLEIK
notes: source: HEK 293T, transfected, culture supernatant
With B1, the binding result in assay [1] (one partner purified) is given as “binds”.

B2: anti-SEA antibody 1F3, recombinant IgG1 (antibody, V domains shown)
VH: QVQLVESGTDVKKPGSSVKVSCKTSGGTFGDHGITWVRQAPEKGLEYVGRIIPNPGTAYHAQKFQGRVTITADESTGTAYLELSRLSFDDTAVYYCARGMTGYVGAYDYWGQGTLVTVSS
VL: QSVLTQPPSASGTPGQRVSISCSGSSSNIGSNSVSWYQLLPGTAPKLLIYFSHQRPSGVPDRFSASKSGTSASLAISDLQPEDEADYYCASWDDRLNGPVFGGGTKLTVL
notes: also called 1F3 IgG1; HPK-016_1F3
For B2, the binding result is reported as “binds” in assay [2] (both partners purified), “no binding” in assay [3] (both partners purified) and “binds” in assay [4].

B3: anti-SEA antibody HPK-018_1B6, recombinant IgG1 (antibody, V domains shown)
VH: EVQLVESGGEVKKPGASVKVSCKTSGYTFSSYYMHWVRQAPGQGLEWMGVINPSGGSIKYAQKFQGRVTMTRDTSTTTIYMDLSSLRSDDTAVYYCAYWGADGFDIWGQGTMVTVSS
VL: QSVLTQPPSASGTPGQRVTISCSGSSSNIGSNSVNWYQQVPGTAPKLLTYGNNQRRSGVPDRFSGSKSGTSASLAISGLQSEDEADYSCAVWDDSLSAWVFGGGTKLTVL
notes: as for B1
B3: the binding result in assay [2] (one partner purified) is “binds”.

B4: anti-SEE antibody HPK-014_1G2, recombinant IgG1 (antibody, V domains shown)
VH: QVQLVESGGGVVPPGGSLRLSCATSGFKFNDYDMHWVRQAPGKGLEWVASIRYHGNKDYYADSVKGRFTISRDNSKNTLSLQMNSLRPEDTAIFYCARDRAQGIVAAAGTSFGYWGQGTLVTVSS
VL: SYELTQPPSVSVSPGQTARITCSADALPKQYVYWYQQKSGQAPVLVMYKDSERPSGIPERFSGSTSGSTVMLTISGVQEEDEAVYYCQSGDTSGFDPDVAFGGGTKLTVL
notes: also called 1G2 IgG1
For the molecule B4, the binding result was “no binding” in assay [2] (both partners purified); “binds” in assay [5]; “no binding” in assay [1] (both partners purified); “binds” in assay [3] (one partner purified); “binds” in assay [6].

B5: anti-SEE antibody HPK-014_1G2, Fab (Fab, V domains shown)
VH: QVQLVESGGGVVPPGGSLRLSCATSGFKFNDYDMHWVRQAPGKGLEWVASIRYHGNKDYYADSVKGRFTISRDNSKNTLSLQMNSLRPEDTAIFYCARDRAQGIVAAAGTSFGYWGQGTLVTVSS
VL: SYELTQPPSVSVSPGQTARITCSADALPKQYVYWYQQKSGQAPVLVMYKDSERPSGIPERFSGSTSGSTVMLTISGVQEEDEAVYYCQSGDTSGFDPDVAFGGGTKLTVL
notes: source: Expi293, purified (LambdaFabSelect agarose)
As to B5, in assay [3] (both partners purified), the binding result is recorded as “binds”.

B6: anti-SEE antibody HPK-014_1G2, recombinant IgE (antibody, V domains shown)
VH: QVQLVESGGGVVPPGGSLRLSCATSGFKFNDYDMHWVRQAPGKGLEWVASIRYHGNKDYYADSVKGRFTISRDNSKNTLSLQMNSLRPEDTAIFYCARDRAQGIVAAAGTSFGYWGQGTLVTVSS
VL: SYELTQPPSVSVSPGQTARITCSADALPKQYVYWYQQKSGQAPVLVMYKDSERPSGIPERFSGSTSGSTVMLTISGVQEEDEAVYYCQSGDTSGFDPDVAFGGGTKLTVL
notes: also called 1G2 IgE; anti-SEE IgE 1G2
Take B6: in assay [3] (both partners purified), the binding result is given as “binds”.

B7: anti-SED antibody HPK-018_2D6, recombinant IgG1 (antibody, V domains shown)
VH: QVQLVQSGGGLVQPGRSLRLSCRASGFTFGEYAMSWVRQAPGKGVEWVSFIRSRTYGATTEYAASVKGRFTISRDDSESIVYLQMNSLKTEDTAVYYCTTYCSSTSCQIDYWGQGTLVTVSS
VL: QSALTQPPSASALLGASIKLTCTLSSEHSTYIIEWFQQRPGRSPQYIMDVKSDGSYTKGDGIPDRFMGSSSGADRYLTLSNLQSDDEAEYYCGESHTIDGQVGYVFGTGTKVTVL
notes: as for B1
Take B7: the binding result in assay [1] (one partner purified) is listed as “binds”.

B8: anti-SEE antibody HPK-016_203, recombinant IgG1 (antibody, V domains shown)
VH: EVQLVESGAEVKKPGESLKISCKGSGNTFTNYWIAWVRQRPGKGLEWMGIIYPGDSDTRYSLSFQGQVTISVDKSINTAYLQWSSLRASDTAIYFCVRHCSGGRCSSAPLDSWGQGTLVTVSS
VL: NFMLTQPPSVSESPGKTVTISCTRSSGSIGTYYVHWYQQRPGSAPTTLIYDDSHRPSGVPDRFSGSVDSSSNSASLIISGLKTEDEADYYCLSHDTTNFVFGGGTKLTVL
notes: also called 203 IgG1
Take B8: the binding result is on record as “no binding” in assay [2] (both partners purified); “binds” in assay [5]; “no binding” in assay [1] (both partners purified); “binds” in assay [3] (one partner purified); “binds” in assay [6].
